Results on one protein are retold here after publication PMC5343089, “^1H, ^15N, ^13C backbone resonance assignments of human soluble catechol O-methyltransferase in complex with S-adenosyl-L-methionine and 3,5-dinitrocatechol” (Biomolecular Nmr Assignments, 2016).

This data set deals with the molecule itself. In words: SEC + native gel or EMSA + other: mass spectrometry; Superdex 75 26/60, 50 mM Tris-HCl pH 7.5, 50 mM NaCl, 10 mM DTT, 4 °C; two separated peaks; native gel electrophoresis and mass spectrometry not shown. (Mobility shift assays separate free from complexed probe on a gel.)

B1: human soluble catechol O-methyltransferase (enzyme, UniProt P21964-2 1-221, looked up)
chain: QGDTKEQRILNHVLQHAEPGNAQSVLEAIDTYCEQKEWAMNVGDKKGKIVDAVIQEHQPSVLLELGAYCGYSAVRMARLLSPGARLITIEINPDCAAITQRMVDFAGVKDKVTLVVGASQDIIPQLKKKYDVDTLDMVFLDHWKDRYLPDTLLLEECGLLRKGTVLLADNVICPGAPDFLAHVRGSSCFECTHYQSFLEYREVVDGLEKAIYKGPGSEAGP
notes: Catechol O-methyltransferase, human, soluble isoform (S-COMT), EC 2.1.1.6; valine at the polymorphic position 108; 233 residues with the 12-residue tag, so 221 residues of S-COMT; Q belongs to the ENLYFQG site; 2H,15N,13C-labelled protein; Val108 allele; also called S-COMT; human S-COMT; source: E. coli BL21(DE3), pET21a, purified (His-Trap Ni-Sepharose, Superdex 75 size exclusion)
Broadly, the stoichiometry N is a count of units in the complex or per binding partner. In the case of B1, the “stoichiometry N” value was 2.
